Assay results: the nanobody polyreactivity screen of Harvey et al. (2022)

Assay: yeast display, Sf9 membrane polyspecificity reagent, FACS + sequencing; frameworks hold sequencing errors
Summary of the method: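 Galactose induction of a Saccharomyces cerevisiae BJ5465 synthetic nanobody display library ran 36–48 hours. The cells were then stained for 1 hour at 4 °C with 10% biotinylated, detergent-solubilized Sf9 membrane reagent, pulled down on streptavidin microbeads and FACS-sorted into low and high (top ~1%) gates on expression and reagent-binding fluorescence. Labels for polyreactivity follow the gate of origin.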

QVQLVESGGGLVQAGGSLRLSCAASGITLYGYTMGWYRQAPGKERELVAGISRGGSTYYADSVKGRFTISRYNEKNTVFLQLNSLKPEDSEVYYCAAAGWYRGDYWGQGTQVTVSS
polyreactivity (PSR sort gate): high polyreactivity

QVQLVESGGGLVQAGGSLRLSCAASGNTFATYAMGWYRQAPGKERELVAAITWSGGSTYYADSVKGRFTISRDNAKNNVYLQMNSLKPEDTAVYYCAADYLYYAIPAYYWDTGYDYWGQGTQVTVSS
polyreactivity (PSR sort gate): low polyreactivity

QVQLVESGGGLVQAGGSLRLSCAASGFTFASNAMGWYRQAPGKERELVAGISRTGTTTYYADSVKGRFTISRDNAKNTVYLQMNSLKPEDTAVYYCAKGSNSYLRYHYTYPYDYWGQGTQVTVSS
polyreactivity (PSR sort gate): high polyreactivity

QVQLVESGGGLVQAGGSLRLSCAASGSILYRNAMGWYRQAPGKEREFVAAISWRGGSTYYADSVKGRFTISRDNAKNTVYLQMNSLKPEDTAVYYCAKGGYRSPPGRYDGYYWGQGTQVTVSS
polyreactivity (PSR sort gate): high polyreactivity

QVQHVESGGGLVQAGGSLRLSCAASGRTFGSNAMGWYRQAPGKERELVAAISLRGGRTYYADSVKGRFTISRDNAKNTVYLLMNSLKPEDTAVYYCNAVHYLYGARSRLTYDYWGQGTQVTVSS
polyreactivity (PSR sort gate): high polyreactivity

QVQLVESGGGLVQAGGSLRLSCAASGRIFAYNAMGWYRQAPGKERELVAAIDWSGGRTYYADSVKGRFTISRDNEKNTVYLQMNSLKPEDTAVYYCATDVNSYGYYYWGQGTQVTVSS
polyreactivity (PSR sort gate): high polyreactivity

QVQLVESGGGLVQAGGSLRLSCAASGLIFVINAMGWYRQAPGKERELVATISSGVSTNYADSVKGRFTISRDNAKNTVYLQMNSLKPEDTAVYYCKKGQTVSRGYRLYERYDYWGQGTQVTVSS
polyreactivity (PSR sort gate): low polyreactivity

QVQLVESGGGLVQARGSLRLSCAASGLTFASYAMGWYRQEPGKERELVARISRSGGSTYYADSVKGRFTISRDNAKNTVYFHMNSLKPEDTAVYYCAADYIFRRYPGGGIYDYDYWGQGTQVTVSS
polyreactivity (PSR sort gate): high polyreactivity

QLQLVESGGGLVQAGGSLRLSCAPSGSIFYYSAMGWSRQAPGKESEFVAAITRNGGSTYYADSVKGRFTISRDNAKNTVYLQMNSLKPVATAVFYCNAVRVRVTSHRIRQLDYGYWGQGTQVTVSS
polyreactivity (PSR sort gate): low polyreactivity

QVQLVESGGGLVQAGGSLRLSCAASGRIFHSNAMGWYRQAPGKESELVADINRDGSTNYADSVKGRFTISRDNAKNTVYLQMNSLKPEDTAVYYCAKPYYSWPRYNHFEYWGQGTQVTVSS
polyreactivity (PSR sort gate): low polyreactivity

QVQLVESGGGLVQAGGSLRLSCAASGSIIGGNAMGWYRQAPGKERELVAAIRSGGRTNYADSVKGRFTISRDNAKNTVYLQMNSLKPEDTAVYYCAADYYLGGGYWGQGTQVTVSS
polyreactivity (PSR sort gate): low polyreactivity

QVQLVESGGGLVQAGGSLRLSCAASGSTFDRNAMGWYRQAPWKERELVATINSDDSKNYADSVKGRFTISRDNAKNTVYLQMNSLKPEDTAVYYCAARLYVTPILSYVERYTNDYWGQGTQVTVSS
polyreactivity (PSR sort gate): low polyreactivity

QVQLVESGGGLVQAGGILRLSCAASGSTLTYYTMGWYRQAPGKERELVAHISWSSGRTYYADSVKGRFTISRDNAKNTVYLQMNSLKPEDTAVYYCNADRTYYRGLDYWGQGTQVTVSS
polyreactivity (PSR sort gate): high polyreactivity

QVQLRESGAGGRQPAPEMRGERQYFYWSADGLVSQGPGKEREFDAGIDRGTITNYADSVRGRFTISRDNAKNTVYLQMNSLKPEDTAVYYCAVPAYGDPRSYYWGQGTHVTVSS
polyreactivity (PSR sort gate): high polyreactivity

QVQLVESGGGLVQAGGSLRLSCAASGSTFSRYVMVWYRQAPGKERELVAAISRSGSTYYADSVKGRFTISRDNAMNTVYLQMNSLKPEDTAVYYFDATGSKSAGYGYWGQGTQVTVSS
polyreactivity (PSR sort gate): high polyreactivity

QVQLVESGGGLVQAGGSLRLSCAASGRTFPSYAMGWYRQAPGKERELVAAISRSGGSTYYADSVKGRFTISRDNAKNTVYLQMNSLKPEDTAVYYCAAVSRVHFSYIYDYWGQGTQVTVSS
polyreactivity (PSR sort gate): high polyreactivity

QVQLVESGGGLVQAGGSLRLSCAASGSIFRSYAMGWYRQAPGKERELVAAISRRGSSTYYADSVKGRFTISRDNAKNTVYLQMNSLKPEDTAVYYCNRVRYPRVDYWGQGTQVTVSS
polyreactivity (PSR sort gate): high polyreactivity

QVQLVESGGCLVQAGGSLRLSCAASGSTFAEYVMGWDRQAPGKERELVAAISSGTSTYYADSVKGRFTISRDNAKNTVYLQMNSLKPEDTAVYYCNADLYHNWYKPEYDYCGQGTQVTVSS
polyreactivity (PSR sort gate): low polyreactivity

QVQLVESGGGLVQAGGSLRLSCAASGSTFYRYAMGWYRQAPGKERELVAAISQSGGRTYYADSVKGRFTISRDYAKNTVYLQMNSLKPEDTAVYYCAASWYYSLQRYGYWGQGTQVTVST
polyreactivity (PSR sort gate): high polyreactivity

QVQLVESGGGLVQAGGSLRLSCAASGSIFDYNAMGWYRQAPGKERELVAAITSGTSTNYADSVKGRFTISRDNAKNTVYLQMNSLKPEDTAVYYCAADPVWAYDYWGQGTQVTVSS
polyreactivity (PSR sort gate): low polyreactivity

QVQLVESGGGLVQAGGSLRLSCAASGSIFNGYAMGWYRQAPGKERELVAAISWSGVGTYYADSVKGRFTISRDNAKNTVYLEMNSLKPEDTAVYYCNAVATHDWLRVDTYEYWGQGTQVTVSS
polyreactivity (PSR sort gate): low polyreactivity

QVQLVDSGGGLVQAGGSLRLSCAASGFIFYKYAMGWYRQATGKERELVAAISKRGGSTYYADSVKGRFTISRDNAKNTVYLQMNSLKPEYTAVYDCATDGGYSDTVRYVASDYWGQGTQVTVSS
polyreactivity (PSR sort gate): high polyreactivity

QVQLVESGGGLVQAGGSLRLSCAASGRTFKYYAMGWYRQAPGKERELVAAISLSSGRTYYADSVKGRFTISRDNAKNTVYLQMNSLKPEDTAVYYCAAERYASGLVYGYDYWGQGTQVTVSS
polyreactivity (PSR sort gate): high polyreactivity

QVQLVESGGGLVQAGGSLRLSCAASGGTFLFYGMGWYRQAPGNERELVAVITWSGGSTYYADSVKGRFTISRDTAKNTVYLHMNSLKPVDTAVYYCAADGYFYFDYPWMNYWGQGTQVTVSS
polyreactivity (PSR sort gate): low polyreactivity

QVQLVESGGGLVQAGGSLRLSCAASGSIFDYYAMGWYRQAPGKERELVAAINISGGDTYYADSVKGRFTISRDNAKNTVYLQMNSLKPEDTAVYYCAADWVTWWFSRVGWDYGYWGQGTQVTVSS
polyreactivity (PSR sort gate): low polyreactivity

QVQLVESGGGLVQAGGILRLSCAASGRTFGIYVMGWYRQAPGKERELVAAIRSGGTTNYADTVKGRFTISRDNAKNTVYLKMNSLKPEDTAVYYCAASSRRSWTYDYWGQGTQVTVSS
polyreactivity (PSR sort gate): high polyreactivity

QVQLVESGGGLVQAGGSLRLSCAASGSTFLPYAMGWYRQAPGKERELVAAITWRTGSTYYADSVKGRFTISRDNAKNTVYLQMNSLKPEDTAVYYCNAKQRGKFDYWGQGTQVTVSS
polyreactivity (PSR sort gate): low polyreactivity

QVQLVESGGGLVQAGGSLRRSCAAYGRIFTMNAMGWYRQAPGKESELVAVISRSGCSTYYADSVKGRFTISRDNAKNTVYLQMNSLNPEDTAVYYCNAVPIYYAWRRNKPFDYWGLGTQVTVSS
polyreactivity (PSR sort gate): low polyreactivity

QLQLVESGGGLVQAGGSLRLSCAASGFIFDSYAMGWYRQAPGKERELVAAISWSGSSTYYADSVKGRFTISRDNAKNTVFLQMNSLKPEDTAVYYCGALVYPYWGGSMYYWGQGTQVTVSS
polyreactivity (PSR sort gate): high polyreactivity

QVQLVESGGGFVQAGGSLRLSCAASGCTVRWNAKGWYRQATGKDRELVAAITYSGGSTYYADSVKGRLTISRDIANNTVYLQMNSLNPEDTAVYYCATEGRGYFCYYTDDYWGQGTQVTVSS
polyreactivity (PSR sort gate): high polyreactivity

QVQLVESGGGLVQAGGSLRISCAASGRTFSGNAMGWYRQAPGKERELVAAISSGGSTNYADSVKGRFTISRDNAKNTVYLQMNSLKPEDTAVYFCARDAYLPRIADGDGRYELVDYWGHGTQVTVSS
polyreactivity (PSR sort gate): low polyreactivity

QVQLVESGGGLDQAGGSLRLSCAASGSIFVLYAMGWYRQAPGKERELVAAITRSGGDTYYADSVKGRFTISRDNAKNTVYLQMNSLKPEDTAVYYCAAERSWYPWVATGYYWGQGTQVTVSS
polyreactivity (PSR sort gate): low polyreactivity

QVQLVESGGGLVQAGGSLRLSCAASGNIFYTNAMGWYRQAPGKERELVAAISRSGGRTYYADSVKGRFTISRDNAKNTVYLQMNSLKPEDTAVYYCAKQLYSPYKQRGYRLSPYEYWGQGTQVTVSS
polyreactivity (PSR sort gate): low polyreactivity

QDQLVESGGGLVQAGGSLRLSCAASGFTFYPYTRGWYRQAPGKERELVAAISKSGGSTYYADSVKGRFTISRDNAKNTVYLQMNSLKPEDSAVYYCAAQRYSYYTPDDDYWGQGTQVTVSS
polyreactivity (PSR sort gate): high polyreactivity

QVQLGESGGGLVQAGGSLRLSCAASGSTFYVYAQGWYRPAPGKERELVAAISSSGARTYYADSVKGRFTISRDNAKNTVYLQMNCLKPDDTAVLYCAARRYYKFYYWGHGTQVTVSS
polyreactivity (PSR sort gate): high polyreactivity

QVQLVESGGGLVQAGGSLRLSCAPSGRTFNDYAMGWYRQAPGKESELVAAIDSDGDTNYADSVKGRFTISRDNAKNTVYLQMNSLKPEDTAVYYCNAVRLVVQEWYYYFTFDYWGQGTQVTVSS
polyreactivity (PSR sort gate): low polyreactivity

QVQLVESGGGLVQAGGSLRLSCAASGSIFLENAMGWYRQAPGKERELVAAISRSGGSTYYADSVKGRFTISRDNAKNTVYLQMNSLKPEDTAVYYCNAYRDVYNYFFGAKYDYWGQGTQVTVSS
polyreactivity (PSR sort gate): high polyreactivity

QVQLVESGGVLVQAGGSLRLSCAASGRTSFYYGVGWSRQAPGKERELVAGINYGGGSTYYADSVKGRFSISRDTAKNTVYLQMNSLKPEDTAVYYCAAYRRTLGDYWGQGTQVTVSS
polyreactivity (PSR sort gate): low polyreactivity

QVQLVESGGGLVQAGGSLRLSCAASGGTFGQYAMGWYRLAPGKERELVAAITSSGGRKYYADSVKGRFTISRDNAKNTVYLQMNSLKPEDTAVYYCAADVQSRYVGEGDYWGQGTQVTVSS
polyreactivity (PSR sort gate): high polyreactivity

QVQLLESGGGLVQAGGSLRLSCAASGSTFWPNAMGWYRQAPGKERELVAAITGGGGTNYADSVKGRFTISRDNAKNTVYLQMNSLKPEDTAVYYCAAKKVNSRSHVKYYYWGQGTQVTVSS
polyreactivity (PSR sort gate): high polyreactivity

QVQLVESGGGIVQAGGSLRLSCAASGSIFDKNAMGWYRQAPGKERELVAAIDSGDTYYADSVKGRFTISRDNAKNTVYLQMNSLKPEDTAVYYCAADDVQYEYDYWGQGPQVTVSS
polyreactivity (PSR sort gate): low polyreactivity

QVQLVESGGGLVQAGGSLRLSCAASGLTFSPYAMGWSRQAPGKERELVATITIGGSTKYADSVKGRFTISRDNAKNTVYLQMNSLKPEDSAVYYCAVRSGYVTRSYEYWGQGTQVTVSS
polyreactivity (PSR sort gate): low polyreactivity

QVQLVESGGGLVQAGGSLRLSCAASGFTFRTYAMGWYRQAPGKERELVAAINTGGGTNYADSVKGRFTISRDNAKNTVYLQMNSLKPEDTAVYFCNAVHYYYYYWYSLYDSWGKGTQVTVSS
polyreactivity (PSR sort gate): high polyreactivity
